# Experimental data from patent US10077295B2, “Glycoproteins having lipid mobilizing properties and therapeutic uses thereof” (Aston University, priority 2010, dated 2018).
# Assays:
# ob/ob mice [1] = assay: ob/ob mice treated with ZAG, 21 day study; assay type: in vivo, mouse
# Procedure: FIG. 7A is a graphical diagram showing weight loss of the ob/ob mice during the 21 day study. ZAG was injected at days 1, 4, 5, 8, 13, 16, 18, and 19; PBS was injected at the same time points.
# Animals—Mice. Homozygous obese (ob/ob) mice from the colony maintained at Aston University were used in the present study. The origin and characteristics of Aston ob/ob mice have been previously described. Male mice (20-21 weeks old, weight 90-100 g) were grouped into three per cage in an air conditioned room at 22±2° C. with a 12 h-light:12 h-dark cycle and fed a rat and mouse breeding diet (Special Diet Services, Witham, UK) and tap water ad libitum. They were administered ZAG (35 μg) in PBS (100 μl) b.d. by i.v. administration and body weight and food and water intake were monitored daily. Control mice received PBS alone. Body temperature was measured daily by the use of a rectal thermometer (RS Components, Northants, UK). All animal experiments were carried out in accordance with the U.K. Animals (Scientific Procedures) Act 1986.
# After 21 days, the plasma metabolite levels in the ob/ob mice were observed (Table 2), with monitored parameters shown in Table 3. […] It was noted that there is much more insulin in the pancreas in ZAG treated animals showing the drop in plasma insulin, which is not due to lower insulin production (e.g., as would happen with a toxin to pancreatic beta cells), but rather due to the fact that less insulin is needed to control blood glucose in the ZAG treated animals.
# murine myotubes = assay: Murine myotubes subjected to high glucose: protein degradation, protein synthesis, ROS, pPKR; assay type: cell-based, mouse
# Procedure: This utilizes murine myotubes subjected to high concentrations of glucose (10 or 25 mM). […] However the SR compound (i.e., SR59230A) can also act as a β-agonist, which it seemed to do in these experiments.
# It has been shown that formation of reactive oxygen species (ROS) is important in protein degradation induced by high glucose load. […] High glucose also induces activation (phosphorylation) of PKR (FIG. 22A) and the subsequent phosphorylation of eIF2α (FIG. 22B) as is seen in skeletal muscle of ob/ob mice, which was also attenuated by ZAG.
# ob/ob mice [2] = assay: Oral (p.o.) administration of rhZAG to ob/ob mice; assay type: in vivo, mouse
# Procedure: 50 ug per day of rhZAG was administered p.o. to Aston ob/ob mice. Oral dosing was achieved by assuming 5 mL/day consumption of water, and adding ZAG to achieve 50 ug per day dose based on that assumption. No attempt was made to correct for variations of consumption on a given day.
# Experiment One (8 Day Oral ZAG Study): 50 ug of ZAG was administered p.o. daily in drinking water.
# Experiment Two (8 Day Oral ZAG Plus Propranolol Study): 50 ug of ZAG administered p.o. daily, with and without propranolol. Propanolol blocks all of the effects of ZAG including decrease in body weight and blood glucose in the tolerance test, also blocking the rise in body temperature and the rise in plasma mouse ZAG, confirming that this occurs through a beta adrenergic receptor. […] It appears to do this by preventing the rise in mouse ZAG in the serum after oral administration of the rhZAG.
# Experiment Three (Oral Study): ZAG administered p.o. daily over an extended time frame, with a recovery group split from the treated group beginning at 30 days (data not shown).
# [3] = system: epididymal adipocytes of male Wistar rats; assay: Uptake of 2-deoxy-D-glucose into epididymal adipocytes of ZAG-treated rats; assay type: in vivo, rat; settings: rats treated for 10 days
# Procedure: Glucose Uptake into Adipocytyes. Isolated adipocytes (5×10^4) were washed twice in 1 ml Krebs-Ringer bicarbonate buffer, pH 7.2 (KRBS) and further incubated for 10 min at room temperature in 0.5 ml KRBS containing 18.5 MBq 2-[1-^14C] deoxy-D-glucose and non-radioactive 2-deoxy-D-glucose to a final concentration of 0.1 mM. Uptake was terminated by the addition of 1 ml ice-cold glucose-free KRBS, and the cells were washed three times with 1 ml KRBS, lysed by addition of 0.5 ml 1M NaOH and left for at least 1 h at room temperature before the radioactivity was determined by liquid scintillation counting.
# [4] = 10 or 25 mM glucose, ZAG 25 μg/ml
# [5] = 50 ug p.o. daily in drinking water, 8 days
molecule,measurement,setting,value
"ZAG: recombinant full length human zinc-α2-glycoprotein (SEQ ID NO: 1) secreted by transfected HEK293F cells; lipid mobilizing factor (protein, listed as Homo sapiens) QENQDGRYSLTYIYTGLSKHVEDVPAFQALGSLNDLQFFRYNSKDRKSQPMGLWRQVEGMEDWKEDSQLQKAREDMETLKDIVEYYNDSNGSHVLQGRFGCEIENNRSSGAFWKYYYDGKDYIEFNKEIPAWVPFDPAAQITKQKWEAEPVYVQRAKAYLEEECPATLRKYLKYSKNILDRQDPPSVVVTSHQAPGEKKKLKCLAYDFYPGKIDVHWTRAGQVQEPELRGDVLHNGNGTYQSWVVVAVPPQDTAPYSCHVQHSSLAQPLVVPWEAS",weight of the gastrocnemius muscles,ob/ob mice [1]; ob/ob mice,0.7 ± 0.1 g
same,weight of brown adipose tissue,ob/ob mice [1]; ob/ob mice (FIG. 7),0.52 ± 0.08 g
same,BAT weight,"ob/ob mice [1]; ob/ob mice, Day 21",0.41 ± 0.35 g
same,Gastrocnemius weight,"ob/ob mice [1]; ob/ob mice, Day 21",0.39 ± 0.12 g
same,Glucose (plasma),"ob/ob mice [1]; ob/ob mice, Day 21",15.2 ± 2.1 mmol/L
same,Glycerol (plasma),"ob/ob mice [1]; ob/ob mice, Day 21",450 ± 36.2
same,Insulin (plasma),"ob/ob mice [1]; ob/ob mice, Day 21",28.5 ± 0.34 ng/mL
same,Insulin Pancreas,"ob/ob mice [1]; ob/ob mice, Day 21",14.5 ± 2.5 pg/g pancerase
same,NEFA (plasma),"ob/ob mice [1]; ob/ob mice, Day 21",0.22 ± 0.06 mEq/l
same,Soleus weight,"ob/ob mice [1]; ob/ob mice, Day 21",0.18 ± 0.07 g
same,Triglycerides (plasma),"ob/ob mice [1]; ob/ob mice, Day 21",0.89 ± 0.08 mmol/L
same,blood glucose,"ob/ob mice [1]; ob/ob mice, Day 21",15.2 mM
same,Finish weight,"ob/ob mice [1]; ob/ob mice, Day 21, in g",83.95 ± 2.2
same,peak body temperature,"ob/ob mice [1]; ob/ob mice, just before maximum weight loss",38.1 °C
same,effect on depression of protein synthesis by high glucose,murine myotubes; [4],completely attenuated
same,effect on protein degradation stimulated by high glucose,murine myotubes; [4],completely attenuated
same,effect on glucose-induced phosphorylation of PKR and eIF2α,murine myotubes; myotubes,attenuated
same,effect on increase in ROS produced by glucose,murine myotubes; myotubes,completely attenuates
same,outcome of oral ZAG,ob/ob mice [2]; [5],"weight loss, increase in body temperature and a lowering of urinary glucose occurred"
same,rhZAG in serum after oral administration,ob/ob mice [2]; [5],absence of rhZAG in serum
same,endogenous murine ZAG after oral rhZAG,"ob/ob mice [2]; 50 ug p.o. daily, 8 days",increase in murine ZAG in serum and WAT
same,body weight lost,"ob/ob mice [2]; p.o. daily, half way through the extended study",13.5%
same,persistence of orally administered rhZAG in the stomach,"ob/ob mice [2]; p.o., ob/ob mice",≥ 24 h
same,time before 50% reversion of urinary glucose to control after treatment stop,ob/ob mice [2]; recovery group,12 days
same,uptake of 2-deoxyglucose into epididymal adipocytes,[3],significant increase
